Results reported in US20250289871A1.

How the values were obtained:
[1] = molecular target: SARS-CoV-2 Delta + T51I + T95I spike protein (authentic virus) (SARS-CoV-2) (UniProt P0DTC2); test: cell-based or functional assay
[2] = molecular target: SARS-CoV-2 D614G spike protein (authentic virus) (SARS-CoV-2) (UniProt P0DTC2); test: cell-based or functional assay

## cilgavimab (AZD1061) (antibody)
[1]
  Authentic Virus Neutralization IC50: 0.014 µg/mL
[2]
  Authentic Virus Neutralization IC50: 0.066 µg/mL
